In US20190309059A1 (SHANGHAI PHARMAEXPLORER, published 2019):

T1: mouse IL-13 (purchased from sino biological) (mouse, UniProt P20109 19-131)
T1 chain: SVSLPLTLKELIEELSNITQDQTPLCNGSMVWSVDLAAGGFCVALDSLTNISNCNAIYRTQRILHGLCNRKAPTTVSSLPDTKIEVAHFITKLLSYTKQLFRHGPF

B1: 28A2E11 (lead antibody, mouse hybridoma) (antibody, V domains shown)
VH: EVQLQQSGAELVKPGASVKLSCTASGFNIKDYYMHWVKQRTEQGLEWIGRIDPEDGETKYAPKFHDKATLTADTSSNTAYLQFSSLASEDTAVYYCTRYDYYGPFAYWGQGTLVTVSA
VL: QAVVTQESVLTTSPGETVTLTCRSSTGAVTTSNYANWVQEKPDHLFTGLIGGTNNRAPGVPARFSGSLIGDKAALTITGAQTEDEAIYFCALWYINHFIFGSGTKVTVL
notes: Mouse monoclonal antibody purified from hybridoma supernatant on Protein G
B2: 29D9H8 (lead antibody, mouse hybridoma) (antibody, V domains shown)
VH: QVQLQQSGAELVRPGASVTLSCKASGYTFTDYEMHWVKQTPVHGLEWIGGIDPETGGTASNQKFKGKAILTADKSSSTAYMELRSLTSEDSAVYYCTSGDYFGGGPFAYWGQGTLVTVSA
VL: DIKMTQSPSSMYASLGERVTITCKASQDINSYLSWFQQKPGKSPKTLIYRANRLVDGVPSRFSGSGSGQDYSLTISSLDYEDMGIYYCLQYDEFPYTFGGGTKLEIK
notes: as for B1

Key:
[1] = biological target: cynomolgus IL-13 (purchased from sino biological) (cynomolgus) (UniProt Q0PW92); assay: ELISA, cynomolgus IL-13; antibody at 0.021 nM
[2] = biological target: mouse IL-13 (purchased from sino biological) (mouse) (UniProt P20109); assay: ELISA, mouse IL-13; antibody at 2.67 nM
[3] = biological target: mouse IL-13 (purchased from sino biological) (mouse) (UniProt P20109); assay: ELISA, mouse IL-13; antibody at 0.000 nM
[4] = biological target: mouse IL-13 (purchased from sino biological) (mouse) (UniProt P20109); assay: ELISA, mouse IL-13; antibody at 0.004 nM
[5] = biological target: mouse IL-13 (purchased from sino biological) (mouse) (UniProt P20109); assay: ELISA, mouse IL-13; antibody at 0.021 nM
[6] = biological target: mouse IL-13 (purchased from sino biological) (mouse) (UniProt P20109); assay: ELISA, mouse IL-13; antibody at 0.001 nM
[7] = biological target: mouse IL-13 (purchased from sino biological) (mouse) (UniProt P20109); assay: ELISA, mouse IL-13; antibody at 0.11 nM
[8] = biological target: cynomolgus IL-13 (purchased from sino biological) (cynomolgus) (UniProt Q0PW92); assay: ELISA, cynomolgus IL-13; antibody at 2.67 nM
[9] = biological target: cynomolgus IL-13 (purchased from sino biological) (cynomolgus) (UniProt Q0PW92); assay: ELISA, cynomolgus IL-13; antibody at 0.004 nM
[10] = biological target: cynomolgus IL-13 (purchased from sino biological) (cynomolgus) (UniProt Q0PW92); assay: ELISA, cynomolgus IL-13; antibody at 0.53 nM
[11] = biological target: mouse IL-13 (purchased from sino biological) (mouse) (UniProt P20109); assay: ELISA, mouse IL-13; antibody at 0.53 nM
[12] = biological target: T1, mouse IL-13 (purchased from sino …); assay: ELISA, mouse IL-13; antibody at 0.53 nM
[13] = biological target: T1, mouse IL-13 (purchased from sino …); assay: ELISA, mouse IL-13; antibody at 13.33 nM

Sequence of cynomolgus IL-13 (purchased from sino biological) (cynomolgus) (Q0PW92 entry or part of it): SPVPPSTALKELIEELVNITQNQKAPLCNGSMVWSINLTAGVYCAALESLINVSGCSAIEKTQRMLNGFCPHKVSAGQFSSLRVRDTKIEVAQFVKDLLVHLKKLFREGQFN

Row | Molecule | OD450 nm [1] | OD450 nm [2] | OD450 nm [3] | OD450 nm [4] | OD450 nm [5] | OD450 nm [6] | OD450 nm [7] | OD450 nm [8] | OD450 nm [9] | OD450 nm [10] | OD450 nm [11] | OD450 nm [12] | OD450 nm [13]
1 | IgG control (mouse IgG) (antibody) | 0.068 | 0.08 | 0.1 | 0.07 | 0.07 | 0.07 | 0.08 | 0.1 | 0.061 | 0.08 | 0.08 | – | –
2 | B1 | – | – | – | – | – | – | – | – | – | – | – | 0.07 | 0.08
3 | B2 | – | – | – | – | – | – | – | – | – | – | – | 0.06 | 0.09
